Legend:
[1] = biological target: T1, alanine:glyoxylate aminotransferase 1, wild-type (major haplotype) (Homo sapiens, major haplotype, UniProt P21549); experiment: ELISA
[2] = biological target: T1, alanine:glyoxylate aminotransferase 1, …; experiment: SPR

T1 sequence (P21549 whole entry): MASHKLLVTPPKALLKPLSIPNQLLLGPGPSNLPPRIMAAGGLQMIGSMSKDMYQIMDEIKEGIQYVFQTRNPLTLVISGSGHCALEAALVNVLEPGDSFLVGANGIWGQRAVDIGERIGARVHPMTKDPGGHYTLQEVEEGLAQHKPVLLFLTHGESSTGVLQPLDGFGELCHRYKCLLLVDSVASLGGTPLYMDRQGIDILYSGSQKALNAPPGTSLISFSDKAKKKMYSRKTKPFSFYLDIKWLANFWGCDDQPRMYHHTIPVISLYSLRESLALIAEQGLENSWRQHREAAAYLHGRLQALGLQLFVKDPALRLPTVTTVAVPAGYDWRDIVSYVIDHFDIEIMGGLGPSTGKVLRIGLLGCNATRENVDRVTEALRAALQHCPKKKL

Binder	binding result [1]	binding result [2]
NB-AGT-6, HA-tagged clone from the phage display vector (VHH) VHH: QVQLVESGGGSVQTGGSLRLACVASGFTSDHYSIGWFRQAPGKEREGVSCIGMHDGSTKYAESVKGRFTISSDNDKNTVYLQMNSLKPEDTAVYYCAAGPLVLLDSDTYQSWGEGTQVTVS	binds	
NB-AGT-6 (VHH) VHH: QVQLVESGGGSVQTGGSLRLACVASGFTSDHYSIGWFRQAPGKEREGVSCIGMHDGSTKYAESVKGRFTISSDNDKNTVYLQMNSLKPEDTAVYYCAAGPLVLLDSDTYQSWGEGTQVTVS		binds
NB-AGT-4 (VHH) VHH: QVQLVESGGGLVQSGGSLRLSCVASGGTFSTWSMGWFRQAPGKEREFVAVISWSGTIADYGDSVKGRFTISRDNAKNTVYLQMNSLKPEDTAVYYCAADPVGRVLYSDVGWQYWGQGTQVTVS		binds
NB-AGT-4, HA-tagged clone from the phage display vector (VHH) VHH: QVQLVESGGGLVQSGGSLRLSCVASGGTFSTWSMGWFRQAPGKEREFVAVISWSGTIADYGDSVKGRFTISRDNAKNTVYLQMNSLKPEDTAVYYCAADPVGRVLYSDVGWQYWGQGTQVTVS	binds	
NB-AGT-2 (VHH) VHH: QVQLVESGGGLVQAGGSLRLSCAASGRTFSSYAMGWFRQAPGKEREFVAAINWSGGSTFYADSVKGRFTISRDNAKNTVYLQMNSLKPEDTAVYYCAAARADPYYSISYYSTTHEYDYWGQGTQVTVS		binds
NB-AGT-2, HA-tagged clone from the phage display vector (VHH) VHH: QVQLVESGGGLVQAGGSLRLSCAASGRTFSSYAMGWFRQAPGKEREFVAAINWSGGSTFYADSVKGRFTISRDNAKNTVYLQMNSLKPEDTAVYYCAAARADPYYSISYYSTTHEYDYWGQGTQVTVS	binds	
NB-AGT-3 (VHH) VHH: QVQLVESGGGLVQAGGSLILSCAASGFTFGHYAIGWFRQAPGKEREGVSCINSNDGSTYYADSVKGRFTISSDNAKNTVYLQMNSLKPEDTAVYYCAADYPPYYCSGYGWPSDGINYWGKGTQVTVS		binds
NB-AGT-3, HA-tagged clone from the phage display vector (VHH) VHH: QVQLVESGGGLVQAGGSLILSCAASGFTFGHYAIGWFRQAPGKEREGVSCINSNDGSTYYADSVKGRFTISSDNAKNTVYLQMNSLKPEDTAVYYCAADYPPYYCSGYGWPSDGINYWGKGTQVTVS	binds	
